Assay: soluble fraction after stress (log2 fold change); higher = more stays soluble; pooled small domains, quantitative proteomics
Conditions: stress: 75 degC
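Also: 20 min heating vs room temperature control held 20 min.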

Row | Sequence | soluble fraction (log2)
1 | HMSKPLEVFKLTSEPFGFSFNTALGRSYTVEATGDLGVWKAVELFQGSGGEIRFTAKPTSSGGAQFFRVFV | 0.0649
2 | HMHEGNWTLPNPMPIGTTLTLPEHSRLYISNLAGQRVFETSATSVEIPLLPKGTYLLRLETMNGHTTRKIL | -0.106
3 | HMTGREIDQLFSVVNDLKAKGVGMVFISHHLDEIARIADSVSVLRDGGFVAEVPASTPEKKLVTLMVGRDI | -0.228
4 | HMNSNISYSEFLSQVEKGTINSVEITGNSIKGIYADGGEFITFSPGDPGLIDKLQRSDIEILATPPA | 0.233
5 | HMAPNVEENSKLIGEIGMTLTPLRPSGIATINNRRVDVVSNGDFIDQDERVMVKRVQGARVVVIPV | 0.168
6 | HMPKKLIWERTTSKLQLYITQDRYELKTPLMTIPFTSKSKMMVYLQQRYHLDMQEYRQIYDAG | -2.28
7 | HMTEQLTLVGKTGVTTTDLRPSGKVEVDGKRYDAVADNGAFISKGAHIKVVRYVTGQVYVVPTD | -0.0624
8 | HMGALARLLASVEQELGVTRDRMTRTQKQEAVTLLNEWGAFTLRKSVEDVAEALGVSRFTVYNYLERAEA | -2.99
9 | HMQMSWDAVKARLQDIVNNEDKTKPFNDEMLASKLKEQGIEIARRTVVKYRQQLGIPAARLRKK | -0.752
10 | HMPVRIYEISKKLGLENKEVLATAKSLGIAAAKVPSSSLDKITAEYLEEEILKSHPEVAARLK | 0.142
11 | HMEGVSSESVKEMLKSIIDGEDPHNPVSDQRITDILNSRGINISRRTVAKYRDELGIASSSRRKRY | 0.298
12 | HMEKPYTPPANLNEIQSYEELSKAVQYYNKVKDAATTDADRLKAQQSIDTLEDMRKAWDAASST | 0.328
13 | HMDEEDVLNELIRRLALTADDRLLLSLSYEDGLSSRKIATLLETSAATVQRRLAGLHHQLEQALRVMGLA | -0.323
14 | HMGFSERLAQAMSHAGYTQGGLAKAVGMAQSSVNKLLNNANSSRKTVEIASVLGVRPEWLSTGEGDML | -0.092
15 | HMGLGQRIKARREALGLSQARLGEAVGVSLQAVSNWERDEYLPDTARLPLIARALGLTPGQLME | -0.182
16 | HMRIVQTDYRNFLSQVESGAVRSVQIDETQIRYTALDSGGKEIVYNTGKVDDPGLVNRLYDAGVEFSQVIP | -0.132
17 | HMIDRADLWEALRKLPEDTLKLFSLHFEKGMTHDEISKHTDIPVGTVKTKLRRGLIEARKLAREF | -1.28
18 | HMEDGEVTVPDLRGLTIKEAGTILEKLGLHLSPVGTGLAVRQDVAPGSKVARDTTITVEFEPPDIQVLR | 0.374
19 | HMENPVPVIITDQNFQPLLWKNVGVPTDTIFHELSPENQKKLENLMKTMVQMPLTDDGRISGYAYYSK | 0.0767
20 | HMTKYVEGQKYVFEFRDGTITIGTYLRTGEGNIYIKDLSGEDIYIPKIMIAQIHLATDDNVKGDEFWF | -1.26
21 | HMGFSLEQFGTDPDLKKIVENAFERIITASEGRIFKSDFSSNNSALPLEIFSFLIAVILLKLSGMN | -0.157
22 | HMTKDYVVIYEGLAQTEAVEILGKLQEMGVSAKVDHNDSILVLKDEEDQIRMALATEGYPKS | 0.158
23 | HMTGKTTLEYLNPLLERGIPVWDYLAKASGKAKEEVQEMVSKGLVPGAEAAKAIADYMGAEFAGSMA | -0.0343
24 | HMVAPPILNITTHIFAEEADLRMVMINGVTRREGDSLGENHRLLEITERGLILIFHNKQYTLDV | -4.32
25 | HMVQMKIRAYELEPNDFFIKQNMTYRVMRIQNGMIYAKHLLNSTPITFGAKSMEFVLWTGKYS | -2.21
26 | HMLDPYNVLGVPRDAGMDEIKKAYRKLSRTYHPDANIDNPNKAQAEEKFKQIQEAYQQIVKERTE | -0.0272
27 | HMKTKTIMSTGAREDLVKMINEYYYSKNYIITEDNRIYNTKTEKFMDDLSVKFYRGRWKVIRN | -0.852
28 | HMGTLSLLVQKLMAVGLEGAKASEIVERFDRERIERQINALPSRKIKSSRTGFLIRAIELDIPVE | -2.58

Row | Sequence | soluble fraction (log2)
29 | HMEKSLSAQVYEKIKAGIISLKYPPGSVLKERELSESLGVSRTPVREAIQRLSQESWLVPGEGKRMQVRP | -0.0542
30 | HMQAPIFMNETDGKWYFREKYLNDNHEIAYRVHPEGYDQMEDALRNSVNALNEFAAEMKELRKQV | -0.0803
31 | HMSDLVATKEQVVEAYKYGLGLGLDNSTLKMLLFDIRGEDVADQDKISDGMTVSEIEIWKEGMRTIAEEYL | -0.5
32 | HMAKSPYDVLGLKEDAPFDEVKKRYRELVKKYHPDILMGRGESEEMIEKSTRKLQEINEAYETIKQRA | 0.119
33 | HMVSSEGLASGIERMLVEFGLETDKGRRFAMWSLLYMLGSAPDLDVAFKDPRDREAARTFMDLLDQANA | -1.57
34 | HMGEKPTEITLSNAISVQELAEKLYVSETDIIRTLFLDGIIVNINQVLDLETAVKVGDQLGVTITIVE | -1.33
35 | HMPELSNNLDRDKVALKNFNESLKDGLTPAEAYANHLTNVSKAAQEAARQSNGLPVDIDKYHNSQLAASMA | 0.378
36 | HMNQRQKQLLSILEQQGDWMKGKALATLLAVSDRTIRSDIEKINREVEGSILSHPHKGYLLSVENRQIAET | 0.107
37 | HMKKKLPRYLQEQKYGNGMVFYRYNPTARYIDEGIVTRTNLGSDLSIAKKKANEFNKLIDAFLQQQSE | -1.16
38 | HMADEIQIGLQKAIQSLPEKQKLVFSMRYYDEIPYDEMSKILDMSVGTLKTNYHYAKQKIEDFLQNH | -1.22
39 | HMQDREIHIHAGREVLEKELSRLSLHLKNTNLQEYAARFNVKTAEDILAGIGAGDIRPAHVVNLIADKL | -0.0928
40 | HMTEEVIIQNYIGKNFNDVRDELEAKGITVDEPNMKYSDEFKENTIMAQSIKPGQPLKPGGFNSIKFDVS | -0.0167
41 | HMETWKLYKRAYKKYYARYMKGNMSEADFKAWATQAAADRDAAIEQITPEIDAALKAQIIEQLREKLNR | -1.11
42 | HMDDTPLNNVIKKIAALPENITLADKSAVLSAWEAYQALSVNLKAQVSNSELLIKAYETILQLEGEDQIK | 0.437
43 | HMKGISRVTMELIIDALKKETEPRTVQWIAEKTGLATQTTYRYLQYMVSEQTVEALNVYGKVVSLKAK | -0.649
44 | HMISEKEIKIIEDILARWNGKLTWDDFTSKVAKKLNLPSLSKFTLMGYPEIKQAFLTRKQTLK | -0.53
45 | HMAREQISVSQMVRDVRDGQVKNIEVLGQELRLSYADGSQKVTRKEEGQQALEILFASDIDLAALDLEVQ | -0.0792
46 | HMSSRNLIIFYDSPQAENALLATAERYGAILLHHYRNLHGIAVAIPADKDMAQAVTYFSRQPGVRQV | -2.56
47 | HMPMDYFELFNIPRNANRETIKKILDQEYEKYRARVVSPVLEIRHEAELMLVEISKAKQVLLG | -1.08
48 | HMTKLSPKEKSILHIIGDNAGIKSGQIAKRLDIPSPTVKRILSDLVSQNLIEKFGTGPGTNYSI | -0.0131
49 | HMDPEEETLKNMQRMLQDSGPLKKTEFSLLAKSLGIAEKKARKLIDRGRGRFWTVESGEQKNTQLVTPIQ | -0.108
50 | HMERLLVSKINGMITEAKVSVEDVVKVVASRGHYPEVKSIDEYPDDFLSRWVVPNFKKIVEMINANKEA | -0.979
51 | HMTNPPITTEARNLVVEQLKELNALHPEKARELADSYKKEFNVPKVIGHITEARHGEFLALAISKIDES | -0.241
52 | HMSTFAQNLRALMEKRGVSQNELARSAGLTQSAINKILTGKTKQPGIDTTEAIARVLNVSVAQLIYT | -1.4
53 | HMNGLNISYRMDGENVVETIVFPDATMIRTIAPNGVMTIKTIEDGSVSTSELKADYKLYKKIYESQY | -0.748
54 | HMYDEAAIRKAVMTFVTDNRDERLDLAKISAVLTSKFGNINFDELGYKRFSSFIDSFPELRRNNTFVSLR | -0.883
55 | HMEPDTVVVPNFVGKVYASEIEGNEAYSDFTFVIKEGNDPEQDIGVVLKQTPNEGLEVKKGKEITLTINQ | 0.031

— the domain aggregation screens of Martell et al. (2025)
